Laboratory results published in US20260151494A1 (ARO BIOTHERAPEUTICS, published 2026).
Positions count from the first letter of the chain named.

B1: CD71-binding FN3 domain SEQ ID NO: 274 (designed binder)
chain: MSLPAPKNLVVSRVTEDSARLSWTAPDAAFDSFEIVYWEQVGVGEAIVLTVPGSERSYDLTGLKPGTEYWVQIGGVKGGGFSEPLSAIFTT
B2: CD71-binding FN3 domain SEQ ID NO: 275 (designed binder)
chain: MSLPAPKNLVVSRVTEDSARLSWTAPDAAFDSFEIGYFENLYLGEAIVLTVPGSERSYDLTGLKPGTEYWVQIGGVKGGNWSAPLVAEFTT
B3: CD71-binding FN3 domain SEQ ID NO: 289 (designed binder)
chain: B2 chain with G36A, N40I, L41A, Y42W, N80A, W81Y, A83T, V86S, E88I
B4: CD71-binding FN3 domain SEQ ID NO: 298 (designed binder)
chain: B2 chain with G79D, V86S, E88I
B5: CD71-binding FN3 domain SEQ ID NO: 278 (designed binder)
chain: B2 chain with Y58H, V86S, E88I
B6: CD71-binding FN3 domain SEQ ID NO: 297 (designed binder)
chain: MSLPAPKNLVVSRVTEDSARLSWTAPDAAFDSFEISYFENTWYGEAIVLTVPGSERSYDLTGLKPGTEYSVRIFGVKGGNFSFPLSAIFTT
B7: CD71-binding FN3 domain SEQ ID NO: 282 (designed binder)
chain: B6 chain with E34D, S36G, N40L, S70W, R72S, F74G, N80R, F83E, S86Y, I88R
B8: CD71-binding FN3 domain SEQ ID NO: 285 (designed binder)
chain: B2 chain with P26T, F38W, L41A, L43K, W70V, Q72F, N80V, A83V, V86S, E88I
B9: CD71-binding FN3 domain SEQ ID NO: 296 (designed binder)
chain: B6 chain with E34D, S36G, N40L, S70W, R72S, F74G, N80I, F81W, F83S
B10: CD71-binding FN3 domain SEQ ID NO: 292 (designed binder)
chain: B2 chain with F38W, L41A, L43K, W70V, Q72F, N80V, A83V, P84S, V86S, E88I
B11: CD71-binding FN3 domain SEQ ID NO: 283 (designed binder)
chain: MSLPAPKNLVVSRVTEDSARLSWTAPDAAFDSFEIAYQELSLWGEAIVLTVPGSERSYDLTGLKPGTEYYVHIGGVKGGIWSSPLSAYSTT
B12: CD71-binding FN3 domain SEQ ID NO: 300 (designed binder)
chain: B2 chain with N40A, L41T, Y42P, L43N, W70K, Q72F, N80R, A83K, V86S, E88I
B13: CD71-binding FN3 domain SEQ ID NO: 286 (designed binder)
chain: B1 chain with W38A, Q40P, G42R, V43F, G80E, F81W, E83S
B14: CD71-binding FN3 domain SEQ ID NO: 277 (designed binder)
chain: B1 chain with V36G, W38F, Q40L, V41T, G42Y, V43Y
B15: CD71-binding FN3 domain SEQ ID NO: 284 (designed binder)
chain: B2 chain with F38W, L41A, L43K, W70M, Q72F, N80V, A83V, V86S, E88I
B16: CD71-binding FN3 domain SEQ ID NO: 276 (designed binder)
chain: B2 chain with G36A, N40L, L41D, L43V, N80T, A83G, V86S, E88I, T91I
B17: CD71-binding FN3 domain SEQ ID NO: 299 (designed binder)
chain: B2 chain with G36A, V86S, E88I
B18: CD71-binding FN3 domain SEQ ID NO: 280 (designed binder)
chain: B2 chain with P26L, V86S, E88I

These binders were tested against T1, human CD71 extracellular domain (CD71-ECD) (human, UniProt P02786 89-760) (assay: primary ELISA; note: test concentration or dose not given here).
T1 construct: also called hCD71; human CD71-ECD
T1 sequence (P02786 89-760): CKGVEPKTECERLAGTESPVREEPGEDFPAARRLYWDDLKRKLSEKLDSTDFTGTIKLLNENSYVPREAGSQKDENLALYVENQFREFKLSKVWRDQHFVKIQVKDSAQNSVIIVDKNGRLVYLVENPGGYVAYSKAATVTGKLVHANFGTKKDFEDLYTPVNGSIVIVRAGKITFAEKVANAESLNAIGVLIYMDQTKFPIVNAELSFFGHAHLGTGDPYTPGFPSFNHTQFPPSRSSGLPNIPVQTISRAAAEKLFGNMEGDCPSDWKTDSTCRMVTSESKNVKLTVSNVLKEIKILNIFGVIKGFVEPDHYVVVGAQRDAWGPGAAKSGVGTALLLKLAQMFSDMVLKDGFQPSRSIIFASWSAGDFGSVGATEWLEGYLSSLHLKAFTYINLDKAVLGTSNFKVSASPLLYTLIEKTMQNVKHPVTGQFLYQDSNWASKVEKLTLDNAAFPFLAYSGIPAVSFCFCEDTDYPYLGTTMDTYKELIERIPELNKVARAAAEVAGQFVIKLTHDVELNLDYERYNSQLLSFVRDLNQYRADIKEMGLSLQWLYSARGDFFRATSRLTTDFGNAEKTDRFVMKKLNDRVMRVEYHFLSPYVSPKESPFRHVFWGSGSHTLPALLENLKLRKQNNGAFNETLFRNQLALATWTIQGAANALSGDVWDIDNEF
For B1, the RLU was 2.37e+06 RLU. B2 showed an RLU of 3.4e+06 RLU. Binder B3 has an RLU of 3.57e+06 RLU. B4 showed an RLU of 3.67e+06 RLU. With B5 the RLU was 3.46e+06 RLU. B6 was tested, and the RLU was 2.64e+06 RLU. B7 gave an RLU of 3.2e+06 RLU. For B8, the RLU was 2.81e+06 RLU. Work on B9 yielded an RLU of 3.39e+06 RLU. B10 was tested, and the RLU was 4.33e+06 RLU. B11 was tested, and the RLU was 2.07e+06 RLU. For B12, the RLU was 3.88e+06 RLU. B13 was tested, and the RLU was 2.66e+06 RLU. In the case of B14, the RLU is reported as 4.13e+06 RLU. Work on B15 yielded an RLU of 2.37e+06 RLU. For B16, the RLU was 3.13e+06 RLU. Work on B17 yielded an RLU of 3.26e+06 RLU. Work on B18 yielded an RLU of 3.21e+06 RLU.

What follows are binders tested against T1, human CD71 extracellular domain … (assay: primary ELISA, RLU ratio to HSA).
In the case of B1, the “hCD71:HSA” value is reported as 296. With B2 the “hCD71:HSA” value was 322. With B3 the “hCD71:HSA” value was 77. For B4, the “hCD71:HSA” value was 287. With B5 the “hCD71:HSA” value was 435. In the case of B6, the “hCD71:HSA” value is reported as 512. For B7, the “hCD71:HSA” value was 240. B8 was tested, and the “hCD71:HSA” value was 201. In the case of B9, the “hCD71:HSA” value is reported as 99. B10 was tested, and the “hCD71:HSA” value was 291. For B11, the “hCD71:HSA” value was 77. B12 was tested, and the “hCD71:HSA” value was 284. In the case of B13, the “hCD71:HSA” value is reported as 131. B14 was tested, and the “hCD71:HSA” value was 276. B15 was tested, and the “hCD71:HSA” value was 195. For B16, the “hCD71:HSA” value was 62. B17 was tested, and the “hCD71:HSA” value was 375. In the case of B18, the “hCD71:HSA” value is reported as 103.
